The results in this text go back to US20230127087.

This data set addresses Glypican-3 (GPC3) (UniProt P51654). As to the kind of experiment: filter. The following applies: n = BzdU (benzyl-modified dU); unit not given; Bmax 0.79; SB18T0.05, 37 C; 32P-labelled aptamer, protein titrated from 100 nM.

Glypican-3 (GPC3), sequence (P51654 25-554): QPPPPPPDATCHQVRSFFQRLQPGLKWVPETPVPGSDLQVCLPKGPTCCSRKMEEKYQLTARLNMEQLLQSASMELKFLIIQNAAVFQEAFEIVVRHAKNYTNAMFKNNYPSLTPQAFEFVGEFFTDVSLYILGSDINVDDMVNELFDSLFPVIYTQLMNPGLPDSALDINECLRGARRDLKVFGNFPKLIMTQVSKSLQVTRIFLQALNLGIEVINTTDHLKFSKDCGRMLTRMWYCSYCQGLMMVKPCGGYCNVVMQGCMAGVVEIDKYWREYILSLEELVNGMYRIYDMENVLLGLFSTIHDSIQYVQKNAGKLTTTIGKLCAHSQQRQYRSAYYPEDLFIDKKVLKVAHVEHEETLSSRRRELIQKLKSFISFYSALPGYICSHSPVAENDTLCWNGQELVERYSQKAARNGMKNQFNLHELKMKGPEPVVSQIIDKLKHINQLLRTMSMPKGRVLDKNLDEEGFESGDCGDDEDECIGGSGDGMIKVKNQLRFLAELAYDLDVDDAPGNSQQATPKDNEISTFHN

In turn, “GGGAAGTGAATGCGTTGAATTATGTCCCTTCAGTCATCAC [2428-12-10 (12-10)]” registered a Kd of 1.5.
